These results are taken from article PMC2898018.

The target of this assay is His-tagged WRN (E84A) (human) (UniProt Q14191).
UniProt Q14191, sequence (Q14191 whole entry E84A): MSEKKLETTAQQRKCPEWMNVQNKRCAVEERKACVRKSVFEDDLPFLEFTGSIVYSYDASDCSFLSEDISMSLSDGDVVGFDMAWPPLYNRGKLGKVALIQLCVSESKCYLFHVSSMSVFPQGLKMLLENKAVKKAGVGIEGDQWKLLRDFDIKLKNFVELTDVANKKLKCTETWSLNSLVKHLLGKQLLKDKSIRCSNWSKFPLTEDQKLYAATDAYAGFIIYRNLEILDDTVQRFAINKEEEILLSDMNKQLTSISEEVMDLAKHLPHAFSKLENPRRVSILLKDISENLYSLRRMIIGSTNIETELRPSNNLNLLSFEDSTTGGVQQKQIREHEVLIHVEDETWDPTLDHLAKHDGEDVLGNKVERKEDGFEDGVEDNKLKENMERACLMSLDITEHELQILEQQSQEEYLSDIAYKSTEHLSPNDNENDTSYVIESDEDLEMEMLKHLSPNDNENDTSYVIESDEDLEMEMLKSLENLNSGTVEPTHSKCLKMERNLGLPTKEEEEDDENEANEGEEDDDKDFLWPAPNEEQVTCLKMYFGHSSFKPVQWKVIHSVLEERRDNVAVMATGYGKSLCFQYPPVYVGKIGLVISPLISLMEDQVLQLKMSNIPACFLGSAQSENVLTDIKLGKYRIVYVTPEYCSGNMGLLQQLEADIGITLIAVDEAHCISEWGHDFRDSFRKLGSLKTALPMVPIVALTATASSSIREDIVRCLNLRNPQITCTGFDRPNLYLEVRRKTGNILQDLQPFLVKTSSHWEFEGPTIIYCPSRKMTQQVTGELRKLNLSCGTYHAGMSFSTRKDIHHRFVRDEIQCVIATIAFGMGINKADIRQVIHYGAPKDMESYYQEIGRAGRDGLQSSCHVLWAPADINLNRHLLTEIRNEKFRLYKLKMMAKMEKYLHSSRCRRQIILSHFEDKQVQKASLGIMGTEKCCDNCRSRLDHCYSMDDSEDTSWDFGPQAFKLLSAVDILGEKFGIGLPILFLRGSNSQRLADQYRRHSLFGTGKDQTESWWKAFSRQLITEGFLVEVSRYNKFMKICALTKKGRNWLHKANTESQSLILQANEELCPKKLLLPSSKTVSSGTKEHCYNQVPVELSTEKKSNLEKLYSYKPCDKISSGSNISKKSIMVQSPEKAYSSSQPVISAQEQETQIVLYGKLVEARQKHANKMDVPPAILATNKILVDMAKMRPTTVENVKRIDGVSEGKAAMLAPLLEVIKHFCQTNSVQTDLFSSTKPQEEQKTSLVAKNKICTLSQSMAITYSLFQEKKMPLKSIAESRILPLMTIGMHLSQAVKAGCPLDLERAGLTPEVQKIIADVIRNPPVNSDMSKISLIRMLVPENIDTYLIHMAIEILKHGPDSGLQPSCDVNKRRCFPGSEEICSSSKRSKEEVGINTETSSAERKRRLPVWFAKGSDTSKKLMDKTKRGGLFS

On to “DNA-PKcs, the catalytic subunit of DNA-PK (from UniProt P78527 1-4128) (enzyme)”, for which the unwinding of the telomeric D-loop substrate by WRN (E84A) (3.3 nM) preincubated with DNA-PKcs (16.7 nM), native gel; 3.3% unwound in the absence of DNA-PKcs is 66%.
